Consider 3 molecules from patent US20220362394A1 (SUTRO BIOPHARMA, published 2022).

Where two headings read alike, the source gives them in different places.

In assay [1] the target is T1, human BCMA on cells (human, UniProt Q02223 1-184).
T1 construct: also called hBCMA; BCMA on NCI-H929, ARP-1, OPM-2, U266B1, MM.1S, RPMI-8226 cells
T1 sequence: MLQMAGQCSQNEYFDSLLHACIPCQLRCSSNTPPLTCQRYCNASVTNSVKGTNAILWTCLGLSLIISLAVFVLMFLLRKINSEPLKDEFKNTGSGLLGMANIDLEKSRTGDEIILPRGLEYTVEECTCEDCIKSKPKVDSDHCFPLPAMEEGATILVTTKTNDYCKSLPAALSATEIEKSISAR
Kind of assay: FACS, RPMI-8226 cells. How it is done: (§1) Cells were analyzed using a BD FACS Canto system. Fluorescence-activated cell sorting (FACS) data were analyzed using Flowjo software to calculate mean fluorescence intensity (MFI) (n=3 replicates) and data (mean MFI+/−standard error of the mean [SEM] versus nM of the antibody) was generated using the GraphPad Prism software.

In assay [2] the target is T1, human BCMA on cells. The assay can be described thus: FACS, ARP-1 cells. How it is done:
as §1

Assay [3] deals with T1, human BCMA on cells. The assay can be described thus: FACS, U266B1 cells. How it is done:
as §1

In assay [4] the target is T1, human BCMA on cells. The assay can be described thus: FACS, MM.1S cells. How it is done:
as §1

For assay [5], the target named is T2, human TACI on cells (human, UniProt O14836 1-293).
T2 construct: whole, on cells; also called TNFRSF13B
T2 sequence (looked up): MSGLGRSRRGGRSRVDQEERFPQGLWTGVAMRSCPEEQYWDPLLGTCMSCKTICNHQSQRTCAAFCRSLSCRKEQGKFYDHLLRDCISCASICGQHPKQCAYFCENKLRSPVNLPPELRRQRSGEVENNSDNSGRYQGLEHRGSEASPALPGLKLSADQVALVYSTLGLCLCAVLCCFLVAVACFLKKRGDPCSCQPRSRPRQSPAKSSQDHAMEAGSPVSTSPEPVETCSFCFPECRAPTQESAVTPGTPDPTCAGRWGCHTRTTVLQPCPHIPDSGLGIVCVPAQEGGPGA
The assay can be described thus: flow cytometry on 293T cells stably expressing human TACI, detected with PE-conjugated anti-human Fc antibody.

In assay [6] the target is T3, mouse BCMA on cells (mouse, UniProt O88472 1-185).
T3 construct: HEK293T cells transfected with plasmid encoding mouse BCMA (Invivogen)
T3 sequence: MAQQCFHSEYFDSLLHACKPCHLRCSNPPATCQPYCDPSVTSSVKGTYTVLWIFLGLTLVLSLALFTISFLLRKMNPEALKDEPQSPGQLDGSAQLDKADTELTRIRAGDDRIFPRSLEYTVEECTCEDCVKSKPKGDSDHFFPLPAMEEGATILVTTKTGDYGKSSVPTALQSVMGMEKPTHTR
The assay can be described thus: FACS, 293T-mBCMA cells; NB: No binding. The method, then:
Cells were plated in 96-well plates (100 k per well) and incubated with antibodies (titrated half-log serial dilutions from 200 nM) for 1 hour on ice. […] Cells were analyzed using a BD LSR-Fortessa X-20 flow cytometry system. FACS data were analyzed using Flowjo software to calculate geometric fluorescence intensity (gMFI) (n=3 replicates) and data (geo. Mean MFI+/−SEM versus log nM Ab) were generated using GraphPad Prism software.

For assay [7], the target named is T1, human BCMA on cells. Kind of assay: FACS, NCI-H929 cells. The method, then:
as §1

Assay [8] addresses T1, human BCMA on cells. The assay can be described thus: FACS, OPM-2 cells. How it is done: as §1
The target in assay [9] is T4, cynomolgus BCMA on cells (cynomolgus monkey, UniProt Q02223 1-184 (human entry)). The assay can be described thus: FACS, 293T-cBCMA cells.
T4 sequence (Q02223 other isoform, or with tags, fused parts or gaps): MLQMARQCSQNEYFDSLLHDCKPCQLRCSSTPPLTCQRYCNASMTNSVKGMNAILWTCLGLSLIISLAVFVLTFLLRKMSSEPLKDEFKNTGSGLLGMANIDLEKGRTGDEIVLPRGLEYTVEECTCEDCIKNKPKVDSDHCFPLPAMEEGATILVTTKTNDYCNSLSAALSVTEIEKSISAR
Assay [10] concerns the target T1, human BCMA on cells. Kind of assay: cell-based or functional assay.
Assay [11] addresses T1, human BCMA on cells. Kind of assay: cell-based or functional assay. This is another data set of the same source.
Assay [12] has as its target T5, human BAFF-R on cells (human, UniProt Q96RJ3 1-184).
T5 construct: whole, on cells; also called TNFRSF13C
The assay can be described thus: flow cytometry on 293T cells stably expressing human BAFF-R, detected with PE-conjugated anti-human Fc antibody.

Assay [13] deals with T1, human BCMA on cells. Kind of assay: cell-based or functional assay. This is another data set of the same source.
For assay [14], the target named is T1, human BCMA on cells. Kind of assay: FACS, 293T-hBCMA cells.
Assay [15] has as its target T4, cynomolgus BCMA on cells. Kind of assay: FACS, 293T-cynoBCMA cells; NSB = non-saturating binding.
In assay [16] the target is T6, human BCMA-Fc (human, UniProt Q02223 1-54).
T6 construct: Bought from R&D Systems; also called huBCMA-Fc; not shown: Fc part not described
T6 sequence: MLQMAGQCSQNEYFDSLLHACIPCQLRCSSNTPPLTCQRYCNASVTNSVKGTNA
Kind of assay: ELISA, coated huBCMA-Fc.

Assay [17] deals with T7, cyno BCMA-Fc (cynomolgus monkey, UniProt Q02223 1-54 (human entry)).
T7 construct: Custom protein production; also called cynomolgus BCMA-Fc; not shown: Fc part not described
The assay can be described thus: ELISA, coated cynoBCMA-Fc.

Assay [18] concerns the target T6, human BCMA-Fc. Kind of assay: SPR Biacore, antibody captured, 25 C.

B1: Conjugate 4 (antibody, human IgG1, kappa, V domains shown)
VH: EVQLVESGGGLVQPGGSLRLSCAASGFNISAPGIHWVRQAPGKGLEWVGFINPAGGYTDYADSVKGRFTISADTSKNTAYLQMNSLRAEDTAVYYCARDYIRQYWTYVLDYWGQGTLVTVSS
VL: not shown
modifications: p-azidomethyl-phenylalanine in place of HC-Y180 and HC-F404 (EU numbering), each bonded to a non-cleavable maytansine linker-warhead (Conjugate M); DAR4
notes: also called Conjugate 4 ADC; SP8919 ADC
B1: the Kd in assay [1] was found to be 1.8 nM; in assay [2], 1.2 nM; in assay [3] it was 3.9 nM; in [4] it was 1.6 nM; in assay [7], 2.4 nM; in [8], 2.3 nM. In [9], this molecule yielded a Kd of 2.7 nM. The binding result was “no binding (tested: 67 nM)” in [5], “no binding (tested: 200 nM)” in [6] and “no binding (tested: 67 nM)” in assay [12]. Besides, the “cell killing EC50, NCI-H929, Experiment 1” value in [10] came to 0.7 nM; in assay [11], 0.8 nM. The “cell killing EC50, NCI-H929, Experiment 2” value in [10] and in [11] was 0.8 nM throughout. The “cell killing EC50, OPM2, Experiment 1” value in [10] and in assay [11] was 1.7 nM in each case. The “cell killing EC50, OPM2, Experiment 2” value came out at 2 nM in [10] and 1.8 nM in assay [11]. The results for the “cell killing EC50, U266B1, Experiment 1” value in [10] and in assay [11] were 0.7 nM and 0.8 nM, respectively. Besides, the results for the “cell killing EC50, U266B1, Experiment 2” value in assay [10] and in assay [11] were 0.8 nM and 0.9 nM, respectively. In assay [13], the “cell killing EC50, ARP-1, no competing reagent” value amounted to 0.7 nM. In assay [13], the “cell killing EC50, NCI-H929, no competing reagent” value came to 0.9 nM. The “cell killing EC50, OPM2, no competing reagent” value in assay [13] was found to be 3.3 nM. Also, in [13], the “cell killing EC50, U266B1, no competing reagent” value is 0.9 nM.

B2: 2265-F02 Y180/F404 (unconjugated Ab) (antibody, human IgG1, kappa, V domains shown)
VH: EVQLVESGGGLVQPGGSLRLSCAASGFNISAPGIHWVRQAPGKGLEWVGFINPAGGYTDYADSVKGRFTISADTSKNTAYLQMNSLRAEDTAVYYCARDYIRQYWTYVLDYWGQGTLVTVSS
VL: not shown
modifications: p-azidomethyl-phenylalanine in place of HC-Y180 and HC-F404 (EU numbering), unconjugated
notes: also called unconjugated anti-BCMA antibody, 2265-F02; unconjugated antibody version of Conjugate 4
For the molecule B2, the dissociation constant Kd in assay [1] was determined as 1.3 nM; in assay [2], 1 nM; in assay [4], 0.9 nM; in assay [7], 0.9 nM; in assay [8], 1.3 nM; in [9] it was 2.8 nM. Also, the affinity in assay [14], expressed as Kd, was 2.1 nM. Besides, the binding result in assay [6] is reported as “no binding (tested: 200 nM)”.

B3: 2190-B01 (antibody, V domains shown)
VH: EVQLVESGGGLVQPGGSLRLSCAASGFNISSYWIHWVRQAPGKGLEWVGVITPSGGYTYYADSVKGRFTISADTSKNTAYLQMNSLRAEDTAVYYCARDLGGGYWVGFFDYWGQGTLVTVSS
VL: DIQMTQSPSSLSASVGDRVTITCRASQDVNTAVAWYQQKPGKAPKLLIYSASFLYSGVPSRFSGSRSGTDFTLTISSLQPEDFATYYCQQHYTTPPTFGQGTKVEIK
notes: also called Antibody 16
In the case of B3, the binding result in assay [15] was “binds”. For the same molecule, in assay [16], the Bmax stood at 3.68e+06 and the EC50 came to 0.3 nM. In addition, in assay [17], the Bmax amounted to 2.15e+06 and the EC50 was determined as 19.3 nM. In [18], binding was characterised by a dissociation constant (Kd) of 5.23 nM, the off-rate constant (koff) worked out at 0.000712 s⁻¹ and the kon turned out to be 136000 M⁻¹ s⁻¹.
